The results in this text go back to publication doi:10.1101/2020.05.04.075580.

The target of data set [1] is T1, importin alpha2_21-50 peptide (mouse, UniProt P52293). The data set can be described thus: NMR.
Data set [2] deals with T1, importin alpha2_21-50 peptide. As to the kind of experiment: NMR. This is another data set of the same source.

One may read the Kd as a measure of binding affinity in units of concentration. Higher therefore signals a looser complex.

Read-outs that look alike come from different tables or passages of the source.

B1: SOX-POU 15 bp (dsDNA)
DNA 1: GCAGATGCATAACCG
DNA 2: CGGTTATGCATCTGC
In the case of B1, the Kd in data set [1] was 0.3 µM; in data set [2] it was 600 µM.
